Where “and” joins values, the source holds several entries; their conditions need not be identical. Identical values can stand only once.
Each binder was assayed against HRgpA-6H (Porphyromonas gingivalis) (UniProt P28784) (assay: ELISA, Fab FASEBA supernatant on coated HRgpA-6H).
Sequence of UniProt P28784 (P28784 228-991 limits assumed): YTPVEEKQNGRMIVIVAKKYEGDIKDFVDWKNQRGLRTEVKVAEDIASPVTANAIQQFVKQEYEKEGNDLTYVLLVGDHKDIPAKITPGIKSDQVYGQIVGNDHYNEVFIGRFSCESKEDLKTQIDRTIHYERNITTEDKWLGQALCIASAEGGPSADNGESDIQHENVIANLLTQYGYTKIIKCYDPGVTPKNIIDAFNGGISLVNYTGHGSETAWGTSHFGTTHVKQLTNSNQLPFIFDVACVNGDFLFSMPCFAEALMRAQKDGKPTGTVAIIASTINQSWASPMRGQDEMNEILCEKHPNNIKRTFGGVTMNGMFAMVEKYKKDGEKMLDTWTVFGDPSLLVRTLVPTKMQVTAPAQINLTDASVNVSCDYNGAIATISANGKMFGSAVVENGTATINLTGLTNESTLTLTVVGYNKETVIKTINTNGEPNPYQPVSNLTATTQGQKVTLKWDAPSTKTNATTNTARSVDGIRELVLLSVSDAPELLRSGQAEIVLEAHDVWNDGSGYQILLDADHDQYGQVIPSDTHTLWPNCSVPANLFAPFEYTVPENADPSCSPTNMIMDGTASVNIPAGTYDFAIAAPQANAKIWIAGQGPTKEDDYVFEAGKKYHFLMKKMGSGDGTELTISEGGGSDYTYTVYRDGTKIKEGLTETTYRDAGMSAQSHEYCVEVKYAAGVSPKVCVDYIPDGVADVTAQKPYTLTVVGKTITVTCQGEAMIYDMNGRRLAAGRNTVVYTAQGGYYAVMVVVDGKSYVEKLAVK

| Binder | OD450nm | Ratio OD(Variant)/OD(WT) |
| --- | --- | --- |
| parental mouse (KB001) Fab FASEBA, VL variant H94F (Fab, V domains shown) VH: EVQLKQSGPGLVAPSQSLSITCTVSGFSLSIYSVHWVRQPPGKGLEWLGMIWGGGSSDYNSALKSRLSISKDNSKSQVFLKMNSLQTDDTAMYYCARNGNFYAMDYWGQGTSVTVSS VL: QIVLTQSPAIMSASLGERVTMTCTASSSVSSSFLHWYQQKPGSSPQLWIYSTSNLASGVPARFSGSGSGTSYSLTISSMEAEDAATYYCHQYHFSPYIYTFGGGTKLEIK | 0.77 OD450nm | 0.838 ratio to WT |
| parental mouse (KB001) Fab FASEBA, VL variant S95Y (Fab, V domains shown) VH: EVQLKQSGPGLVAPSQSLSITCTVSGFSLSIYSVHWVRQPPGKGLEWLGMIWGGGSSDYNSALKSRLSISKDNSKSQVFLKMNSLQTDDTAMYYCARNGNFYAMDYWGQGTSVTVSS VL: QIVLTQSPAIMSASLGERVTMTCTASSSVSSSFLHWYQQKPGSSPQLWIYSTSNLASGVPARFSGSGSGTSYSLTISSMEAEDAATYYCHQYHHYPYIYTFGGGTKLEIK | 0.827 OD450nm | 0.9 ratio to WT |
| parental mouse (KB001) Fab FASEBA, VL variant S95H (Fab, V domains shown) VH: EVQLKQSGPGLVAPSQSLSITCTVSGFSLSIYSVHWVRQPPGKGLEWLGMIWGGGSSDYNSALKSRLSISKDNSKSQVFLKMNSLQTDDTAMYYCARNGNFYAMDYWGQGTSVTVSS VL: QIVLTQSPAIMSASLGERVTMTCTASSSVSSSFLHWYQQKPGSSPQLWIYSTSNLASGVPARFSGSGSGTSYSLTISSMEAEDAATYYCHQYHHHPYIYTFGGGTKLEIK | 0.8 OD450nm | 0.871 ratio to WT |
| parental mouse (KB001) Fab FASEBA, VL variant Y97H (Fab, V domains shown) VH: EVQLKQSGPGLVAPSQSLSITCTVSGFSLSIYSVHWVRQPPGKGLEWLGMIWGGGSSDYNSALKSRLSISKDNSKSQVFLKMNSLQTDDTAMYYCARNGNFYAMDYWGQGTSVTVSS VL: QIVLTQSPAIMSASLGERVTMTCTASSSVSSSFLHWYQQKPGSSPQLWIYSTSNLASGVPARFSGSGSGTSYSLTISSMEAEDAATYYCHQYHHSPHIYTFGGGTKLEIK | 0.775 OD450nm | 0.982 ratio to WT |
| parental mouse (KB001) Fab FASEBA (Fab, V domains shown) VH: EVQLKQSGPGLVAPSQSLSITCTVSGFSLSIYSVHWVRQPPGKGLEWLGMIWGGGSSDYNSALKSRLSISKDNSKSQVFLKMNSLQTDDTAMYYCARNGNFYAMDYWGQGTSVTVSS VL: QIVLTQSPAIMSASLGERVTMTCTASSSVSSSFLHWYQQKPGSSPQLWIYSTSNLASGVPARFSGSGSGTSYSLTISSMEAEDAATYYCHQYHHSPYIYTFGGGTKLEIK | 0.9 OD450nm and 0.889 OD450nm | 0.98 ratio to WT and 0.968 ratio to WT |
| parental mouse (KB001) Fab FASEBA, VL variant Y97Q (Fab, V domains shown) VH: EVQLKQSGPGLVAPSQSLSITCTVSGFSLSIYSVHWVRQPPGKGLEWLGMIWGGGSSDYNSALKSRLSISKDNSKSQVFLKMNSLQTDDTAMYYCARNGNFYAMDYWGQGTSVTVSS VL: QIVLTQSPAIMSASLGERVTMTCTASSSVSSSFLHWYQQKPGSSPQLWIYSTSNLASGVPARFSGSGSGTSYSLTISSMEAEDAATYYCHQYHHSPQIYTFGGGTKLEIK | 0.687 OD450nm | 0.871 ratio to WT |
| parental mouse (KB001) Fab FASEBA, VL variant S95E (Fab, V domains shown) VH: EVQLKQSGPGLVAPSQSLSITCTVSGFSLSIYSVHWVRQPPGKGLEWLGMIWGGGSSDYNSALKSRLSISKDNSKSQVFLKMNSLQTDDTAMYYCARNGNFYAMDYWGQGTSVTVSS VL: QIVLTQSPAIMSASLGERVTMTCTASSSVSSSFLHWYQQKPGSSPQLWIYSTSNLASGVPARFSGSGSGTSYSLTISSMEAEDAATYYCHQYHHEPYIYTFGGGTKLEIK | 0.855 OD450nm and 0.82 OD450nm | 0.931 ratio to WT and 0.893 ratio to WT |
| parental mouse (KB001) Fab FASEBA, VL variant S95I (Fab, V domains shown) VH: EVQLKQSGPGLVAPSQSLSITCTVSGFSLSIYSVHWVRQPPGKGLEWLGMIWGGGSSDYNSALKSRLSISKDNSKSQVFLKMNSLQTDDTAMYYCARNGNFYAMDYWGQGTSVTVSS VL: QIVLTQSPAIMSASLGERVTMTCTASSSVSSSFLHWYQQKPGSSPQLWIYSTSNLASGVPARFSGSGSGTSYSLTISSMEAEDAATYYCHQYHHIPYIYTFGGGTKLEIK | 0.846 OD450nm and 0.817 OD450nm and 0.791 OD450nm | 0.921 ratio to WT and 0.889 ratio to WT and 0.861 ratio to WT |
| parental mouse (KB001) Fab FASEBA, VL variant S95T (Fab, V domains shown) VH: EVQLKQSGPGLVAPSQSLSITCTVSGFSLSIYSVHWVRQPPGKGLEWLGMIWGGGSSDYNSALKSRLSISKDNSKSQVFLKMNSLQTDDTAMYYCARNGNFYAMDYWGQGTSVTVSS VL: QIVLTQSPAIMSASLGERVTMTCTASSSVSSSFLHWYQQKPGSSPQLWIYSTSNLASGVPARFSGSGSGTSYSLTISSMEAEDAATYYCHQYHHTPYIYTFGGGTKLEIK | 0.871 OD450nm | 0.948 ratio to WT |
| parental mouse (KB001) Fab FASEBA, VL variant S95Q (Fab, V domains shown) VH: EVQLKQSGPGLVAPSQSLSITCTVSGFSLSIYSVHWVRQPPGKGLEWLGMIWGGGSSDYNSALKSRLSISKDNSKSQVFLKMNSLQTDDTAMYYCARNGNFYAMDYWGQGTSVTVSS VL: QIVLTQSPAIMSASLGERVTMTCTASSSVSSSFLHWYQQKPGSSPQLWIYSTSNLASGVPARFSGSGSGTSYSLTISSMEAEDAATYYCHQYHHQPYIYTFGGGTKLEIK | 0.893 OD450nm | 0.972 ratio to WT |
| parental mouse (KB001) Fab FASEBA, VL variant S95N (Fab, V domains shown) VH: EVQLKQSGPGLVAPSQSLSITCTVSGFSLSIYSVHWVRQPPGKGLEWLGMIWGGGSSDYNSALKSRLSISKDNSKSQVFLKMNSLQTDDTAMYYCARNGNFYAMDYWGQGTSVTVSS VL: QIVLTQSPAIMSASLGERVTMTCTASSSVSSSFLHWYQQKPGSSPQLWIYSTSNLASGVPARFSGSGSGTSYSLTISSMEAEDAATYYCHQYHHNPYIYTFGGGTKLEIK | 0.863 OD450nm and 0.884 OD450nm | 0.94 ratio to WT and 0.962 ratio to WT |
| parental mouse (KB001) Fab FASEBA, VL variant S95W (Fab, V domains shown) VH: EVQLKQSGPGLVAPSQSLSITCTVSGFSLSIYSVHWVRQPPGKGLEWLGMIWGGGSSDYNSALKSRLSISKDNSKSQVFLKMNSLQTDDTAMYYCARNGNFYAMDYWGQGTSVTVSS VL: QIVLTQSPAIMSASLGERVTMTCTASSSVSSSFLHWYQQKPGSSPQLWIYSTSNLASGVPARFSGSGSGTSYSLTISSMEAEDAATYYCHQYHHWPYIYTFGGGTKLEIK | 0.804 OD450nm and 0.79 OD450nm | 0.875 ratio to WT and 0.86 ratio to WT |
| parental mouse (KB001) Fab FASEBA, VL variant S95A (Fab, V domains shown) VH: EVQLKQSGPGLVAPSQSLSITCTVSGFSLSIYSVHWVRQPPGKGLEWLGMIWGGGSSDYNSALKSRLSISKDNSKSQVFLKMNSLQTDDTAMYYCARNGNFYAMDYWGQGTSVTVSS VL: QIVLTQSPAIMSASLGERVTMTCTASSSVSSSFLHWYQQKPGSSPQLWIYSTSNLASGVPARFSGSGSGTSYSLTISSMEAEDAATYYCHQYHHAPYIYTFGGGTKLEIK | 0.83 OD450nm and 0.872 OD450nm | 0.904 ratio to WT and 0.949 ratio to WT |
| parental mouse (KB001) Fab FASEBA, VL variant S95F (Fab, V domains shown) VH: EVQLKQSGPGLVAPSQSLSITCTVSGFSLSIYSVHWVRQPPGKGLEWLGMIWGGGSSDYNSALKSRLSISKDNSKSQVFLKMNSLQTDDTAMYYCARNGNFYAMDYWGQGTSVTVSS VL: QIVLTQSPAIMSASLGERVTMTCTASSSVSSSFLHWYQQKPGSSPQLWIYSTSNLASGVPARFSGSGSGTSYSLTISSMEAEDAATYYCHQYHHFPYIYTFGGGTKLEIK | 0.837 OD450nm | 0.911 ratio to WT |
| parental mouse (KB001) Fab FASEBA, VL variant S95C (Fab, V domains shown) VH: EVQLKQSGPGLVAPSQSLSITCTVSGFSLSIYSVHWVRQPPGKGLEWLGMIWGGGSSDYNSALKSRLSISKDNSKSQVFLKMNSLQTDDTAMYYCARNGNFYAMDYWGQGTSVTVSS VL: QIVLTQSPAIMSASLGERVTMTCTASSSVSSSFLHWYQQKPGSSPQLWIYSTSNLASGVPARFSGSGSGTSYSLTISSMEAEDAATYYCHQYHHCPYIYTFGGGTKLEIK | 0.849 OD450nm | 0.924 ratio to WT |

Source: patent US20230365662A1
